One block for each molecule: values may come before it.
Columns and labels:
GroEL SR-1 RW (E. coli) = GroEL SR-1 RW (E. coli) (UniProt P0A6F5); test: FRET or BRET; stopped-flow intermolecular FRET from the apical domain tryptophan of the GroEL mutant to prebound acid-unfolded AEDANS-GroELwt (equimolar); decrease of FRET after addition of ATP and GroES
GroEL R231W = biological target: T1, GroEL R231W (E. coli, UniProt P0A6F5 1-548, R231W); test: stopped-flow tryptophan fluorescence; GroEL with prebound Gdn-HCl-unfolded MDH (5 min pre-incubation at 25°C); 0.625 µM GroEL oligomer; 1 mM ATP without or with equimolar GroES; conditions: both partners purified
T1 construct: GroEL, E. coli, with a unique tryptophan in the apical domain; Double ring 14-mer; copies: 14

k of PhaseFRET2 (rate of release of the bound unfolded protein) (GroEL SR-1 RW (E. coli)): 0.21 s⁻¹ | k of PhaseFRET (rate of release of the bound unfolded protein) (GroEL SR-1 RW (E. coli)): 4.1 s⁻¹
Molecule: AEDANS-labelled, acid-unfolded wild type GroEL (from UniProt P0A6F5 1-548) (natural protein)

binding result (GroEL R231W): binds
B1: GroES (natural protein, E. coli, UniProt P0A6F9 1-97, looked up)
chain: MNIRPLHDRVIVKRKEVETKSAGGIVLTGSAAAKSTRGEVLAVGNGRILENGEVKPLDVKVGDIVIFNDGYGVKSEKIDNEEVLIMSESDILAIVEA
notes: GroES, co-chaperonin of the E. coli chaperonin GroE; also called wild type GroES; co-chaperonin GroES

Source: PMC3813556, “Probing the Dynamic Process of Encapsulation in Escherichia coli GroEL” (PLoS ONE, 2013)
